Test results from paper PMC12753827 (Nature Communications, 2025).

Biological target: the molecule itself
Assay: SEC

B1: CeLGR-ΔC (C. elegans leucine-rich-repeat-containing GPCR truncated after helix 8 at residue 712) (receptor)
chain: QNALSLAQTKHSCMALKAEDGEGCTCKQTKRYGQPECCCMGLIVSQLPTNLTADVGYLYLHNTSISVITPNFFDKFPSIRELEIDNSAHLEHIDGSSLSVLSKLRKLSVVKCPNLREISGKLLVNNTRIQNVILKNNGLATMPSLRMTDAHHVLLDRIDLSGNKIKFISDSKVRNVKARTVVLSENKLIEISGYAFTESQFLKLKLNNNPDLRSLSVDAFKNMAGLQTLDLSHTSIDTLPINGLKKLKTLILNDVPTLKSLPSVLSFTDLETAHFTYPHHCCLFKYVDDVTMNDNGKYQRNAKEIHKRICDKREQQKVARRRKRETSGIDFLDMLLKEWTDNSTYTGPDDADDDELPPFVEIGAEPCQSIGEEVQKYYSNITCYPQPDALNPCENIVGYPFLRIAVWVVCLAAIVGNIIVWALLGIVYEKRMRMHYLYMINMSVADMVTGIYLAVLAIADAKMSDEYYRHAVWWQTGWGCRAAGFLAVFASELGIISMFLIAFEMSYNTRQSFRGRRLSPKVGVLLMIGGWLFAIIMAILPWFDVSSYSESSVCLPLRAATIFDKSYLIFGLSFNFLAFAAMALSYGFIVKMLKENETREEDRALITKMTVLVVTDLICWFPTLFFGFTATIGFPLLSLSSAKFVLVFFFPINAFANPFLYVFFTEVIQHRVRSKTLPVIRR
For B1, the “stoichiometry N” value was 2.
